From patent EP3370777B1

Molecular target: His-tagged eukaryotic Elongation Factor 2 (eEF2) expressed in S. cerevisiae
Experiment: cell-based or functional assay

recombinant Exotoxin A (SEQ ID NO: 4), expressed in E. coli NiCo21(DE3) as His-tagged SUMO fusion, SUMO-tag removed (enzyme)
ADP-ribosylation activity EC50 [µg/µl] (Example 1, soluble fraction): 0.6 µg/µL | ADP-ribosylation activity EC50 [µg/µl] (Example 2, method of the invention): 0.52 µg/µL
